Starred links: 1 amine or outer side, 2 acyl side, 3 side chain; linkers in the order of their positions; H or OH if unused. Non-standard residues stand in square brackets, D forms with d. Groups on a side chain read outwards from the residue. *: point of attachment. Tet2 = (S)-2-amino-4-(1H-tetrazol-5-yl)butanoic acid, O=C([C@H](CCc1nn[nH]n1)N[*:1])[*:2]; Ala(1H-tetrazol-5-yl) = N[C@@H](Cc1nnn[nH]1)C(=O)O; C18 diacid = O=C(O)CCCCCCCCCCCCCCCCC(=O)*; Dip = N[C@H](C(=O)O)C(c1ccccc1)c1ccccc1; His(τ-Me) = Cn1cnc(C[C@H](N)C(=O)O)c1; Palmitoyl = CCCCCCCCCCCCCCCC(=O)*; β3hF = N[C@H](CC(=O)O)Cc1ccccc1; His(1-Me) = 1-methylhistidine; Isovaleryl = CC(C)CC(=O)*; AEEA = NCCOCCOCC(=O)O; Ahx = NCCCCCC(=O)O
T1: human ferroportin (SLC40A1) fused in frame with GFP, stably expressed in HEK293 cells (human, UniProt Q9NP59 1-571)
T1 sequence (looked up): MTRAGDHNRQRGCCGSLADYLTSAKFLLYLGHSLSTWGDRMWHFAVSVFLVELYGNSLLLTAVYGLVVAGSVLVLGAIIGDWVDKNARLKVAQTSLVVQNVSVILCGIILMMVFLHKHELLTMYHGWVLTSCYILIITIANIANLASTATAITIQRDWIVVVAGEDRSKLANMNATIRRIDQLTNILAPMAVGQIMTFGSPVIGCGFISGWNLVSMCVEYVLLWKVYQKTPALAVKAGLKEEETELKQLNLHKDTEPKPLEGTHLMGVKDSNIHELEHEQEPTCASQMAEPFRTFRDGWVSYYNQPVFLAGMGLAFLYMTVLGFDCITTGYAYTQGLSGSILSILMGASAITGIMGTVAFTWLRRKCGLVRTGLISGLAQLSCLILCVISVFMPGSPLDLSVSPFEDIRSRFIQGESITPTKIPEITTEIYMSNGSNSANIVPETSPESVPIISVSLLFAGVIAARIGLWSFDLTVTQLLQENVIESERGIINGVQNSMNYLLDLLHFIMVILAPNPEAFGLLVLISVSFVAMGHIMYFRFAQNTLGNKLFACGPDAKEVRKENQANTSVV

B1: Isovaleric Acid-E-T-H-[Dpa]-P-A-I-[bhPhe]-[(D)Lys]-A-NH2 (peptide)
peptide: Isovaleryl-ETH[Dip]PAI[β3hF][dK]A-NH2
SMILES: CC[C@H](C)[C@H](NC(=O)[C@H](C)NC(=O)[C@@H]1CCCN1C(=O)[C@@H](NC(=O)[C@H](Cc1c[nH]cn1)NC(=O)[C@@H](NC(=O)[C@H](CCC(=O)O)NC(=O)CC(C)C)[C@@H](C)O)C(c1ccccc1)c1ccccc1)C(=O)N[C@H](CC(=O)N[C@H](CCCCN)C(=O)N[C@@H](C)C(N)=O)Cc1ccccc1
B2: Isovaleric Acid-E-T-[(1-Me)His]-[Dpa]-P-A-I-[Lys(Ac)]-[bhPhe]-[(D)Lys]-A-NH2 (peptide)
peptide: Isovaleryl-ET[His(1-Me)][Dip]PAIK(Ac)[β3hF][dK]A-NH2
B3: Isovaleric Acid-[Tet2]-T-[(1-Me)His]-[Dpa]-P-A-I-[Lys(Ac)]-[bhPhe]-[(D)Lys]-NH2 (peptide)
peptide: Isovaleryl-[Tet2]T[His(τ-Me)][Dip]PAIK(Ac)[β3hF][dK]-NH2
SMILES: CC[C@H](C)[C@H](NC(=O)[C@H](C)NC(=O)[C@@H]1CCCN1C(=O)[C@@H](NC(=O)[C@H](Cc1cn(C)cn1)NC(=O)[C@@H](NC(=O)[C@H](CCc1nn[nH]n1)NC(=O)CC(C)C)[C@@H](C)O)C(c1ccccc1)c1ccccc1)C(=O)N[C@@H](CCCCNC(C)=O)C(=O)N[C@H](CC(=O)N[C@H](CCCCN)C(N)=O)Cc1ccccc1
B4: Isovaleric Acid-E-T-H-[Dpa]-P-A-I-[Lys(1Peg2_1Peg2_Ahx_C18_Diacid-[(D)Lys]-[bhPhe]-[(D)Lys]-A-NH2 (peptide)
peptide: Isovaleryl-ETH[Dip]PAIK([AEEA-AEEA-Ahx-C18 diacid])[dK][β3hF][dK]A-NH2
SMILES: CC[C@H](C)[C@H](NC(=O)[C@H](C)NC(=O)[C@@H]1CCCN1C(=O)[C@@H](NC(=O)[C@H](Cc1c[nH]cn1)NC(=O)[C@@H](NC(=O)[C@H](CCC(=O)O)NC(=O)CC(C)C)[C@@H](C)O)C(c1ccccc1)c1ccccc1)C(=O)N[C@@H](CCCCNC(=O)COCCOCCNC(=O)COCCOCCNC(=O)CCCCCNC(=O)CCCCCCCCCCCCCCCCC(=O)O)C(=O)N[C@H](CCCCN)C(=O)N[C@H](CC(=O)N[C@H](CCCCN)C(=O)N[C@@H](C)C(N)=O)Cc1ccccc1
B5: Isovaleric Acid-[Tet2]-T-[(1-Me)His]-[Dpa]-P-A-I-[Lys(Ac)]-[bhPhe]-[(D)Lys]-A-NH2 (peptide)
peptide: Isovaleryl-[Tet2]T[His(τ-Me)][Dip]PAIK(Ac)[β3hF][dK]A-NH2
B6: Isovaleric Acid-E-T-H-[Dpa]-P-F-I-[(D)Lys]-[bhPhe]-[Lys(Ahx_Palm)]-NH2 (peptide)
peptide: Isovaleryl-ETH[Dip]PFI[dK][β3hF]K([Ahx-Palmitoyl])-NH2
SMILES: CCCCCCCCCCCCCCCC(=O)NCCCCCC(=O)NCCCC[C@H](NC(=O)C[C@H](Cc1ccccc1)NC(=O)[C@@H](CCCCN)NC(=O)[C@@H](NC(=O)[C@H](Cc1ccccc1)NC(=O)[C@@H]1CCCN1C(=O)[C@@H](NC(=O)[C@H](Cc1c[nH]cn1)NC(=O)[C@@H](NC(=O)[C@H](CCC(=O)O)NC(=O)CC(C)C)[C@@H](C)O)C(c1ccccc1)c1ccccc1)[C@@H](C)CC)C(N)=O
B7: Isovaleric Acid-[Tet1]-T-[(1-Me)His]-[Dpa]-P-A-I-[Lys(Ac)]-[bhPhe]-[(D)Lys]-A-NH2 (peptide)
peptide: Isovaleryl-[Ala(1H-tetrazol-5-yl)]T[His(τ-Me)][Dip]PAIK(Ac)[β3hF][dK]A-NH2
SMILES: CC[C@H](C)[C@H](NC(=O)[C@H](C)NC(=O)[C@@H]1CCCN1C(=O)[C@@H](NC(=O)[C@H](Cc1cn(C)cn1)NC(=O)[C@@H](NC(=O)[C@H](Cc1nnn[nH]1)NC(=O)CC(C)C)[C@@H](C)O)C(c1ccccc1)c1ccccc1)C(=O)N[C@@H](CCCCNC(C)=O)C(=O)N[C@H](CC(=O)N[C@H](CCCCN)C(=O)N[C@@H](C)C(N)=O)Cc1ccccc1
B8: Isovaleric Acid-[Tet1]-T-[(1-Me)His]-[Dpa]-P-A-I-[bhPhe]-[(D)Lys]-A-NH2 (peptide)
peptide: Isovaleryl-[Ala(1H-tetrazol-5-yl)]T[His(τ-Me)][Dip]PAI[β3hF][dK]A-NH2
SMILES: CC[C@H](C)[C@H](NC(=O)[C@H](C)NC(=O)[C@@H]1CCCN1C(=O)[C@@H](NC(=O)[C@H](Cc1cn(C)cn1)NC(=O)[C@@H](NC(=O)[C@H](Cc1nnn[nH]1)NC(=O)CC(C)C)[C@@H](C)O)C(c1ccccc1)c1ccccc1)C(=O)N[C@H](CC(=O)N[C@H](CCCCN)C(=O)N[C@@H](C)C(N)=O)Cc1ccccc1
B9: Isovaleric Acid-[Tet2]-T-H-[Dpa]-P-A-I-[Lys(Ac)]-[bhPhe]-[(D)Lys]-A-NH2 (peptide)
peptide: Isovaleryl-[Tet2]TH[Dip]PAIK(Ac)[β3hF][dK]A-NH2
SMILES: CC[C@H](C)[C@H](NC(=O)[C@H](C)NC(=O)[C@@H]1CCCN1C(=O)[C@@H](NC(=O)[C@H](Cc1c[nH]cn1)NC(=O)[C@@H](NC(=O)[C@H](CCc1nn[nH]n1)NC(=O)CC(C)C)[C@@H](C)O)C(c1ccccc1)c1ccccc1)C(=O)N[C@@H](CCCCNC(C)=O)C(=O)N[C@H](CC(=O)N[C@H](CCCCN)C(=O)N[C@@H](C)C(N)=O)Cc1ccccc1
B10: Isovaleric Acid-[Tet1]-T-H-[Dpa]-P-A-I-[Lys(Ac)]-[bhPhe]-[(D)Lys]-A-NH2 (peptide)
peptide: Isovaleryl-[Ala(1H-tetrazol-5-yl)]TH[Dip]PAIK(Ac)[β3hF][dK]A-NH2
SMILES: CC[C@H](C)[C@H](NC(=O)[C@H](C)NC(=O)[C@@H]1CCCN1C(=O)[C@@H](NC(=O)[C@H](Cc1c[nH]cn1)NC(=O)[C@@H](NC(=O)[C@H](Cc1nnn[nH]1)NC(=O)CC(C)C)[C@@H](C)O)C(c1ccccc1)c1ccccc1)C(=O)N[C@@H](CCCCNC(C)=O)C(=O)N[C@H](CC(=O)N[C@H](CCCCN)C(=O)N[C@@H](C)C(N)=O)Cc1ccccc1
B11: Isovaleric Acid-E-T-H-[Dpa]-P-[Lys(Ahx_Palm)]-I-[(D)Lys]-[bhPhe]-[Lys(Ac)]-NH2 (peptide)
peptide: Isovaleryl-ETH[Dip]PK([Ahx-Palmitoyl])I[dK][β3hF]K(Ac)-NH2
SMILES: CCCCCCCCCCCCCCCC(=O)NCCCCCC(=O)NCCCC[C@H](NC(=O)[C@@H]1CCCN1C(=O)[C@@H](NC(=O)[C@H](Cc1c[nH]cn1)NC(=O)[C@@H](NC(=O)[C@H](CCC(=O)O)NC(=O)CC(C)C)[C@@H](C)O)C(c1ccccc1)c1ccccc1)C(=O)N[C@H](C(=O)N[C@H](CCCCN)C(=O)N[C@H](CC(=O)N[C@@H](CCCCNC(C)=O)C(N)=O)Cc1ccccc1)[C@@H](C)CC
B12: Isovaleric Acid-E-T-H-[Dpa]-P-E-I-[(D)Lys]-[bhPhe]-[Lys(Ahx_Palm)]-NH2 (peptide)
peptide: Isovaleryl-ETH[Dip]PEI[dK][β3hF]K([Ahx-Palmitoyl])-NH2
SMILES: CCCCCCCCCCCCCCCC(=O)NCCCCCC(=O)NCCCC[C@H](NC(=O)C[C@H](Cc1ccccc1)NC(=O)[C@@H](CCCCN)NC(=O)[C@@H](NC(=O)[C@H](CCC(=O)O)NC(=O)[C@@H]1CCCN1C(=O)[C@@H](NC(=O)[C@H](Cc1c[nH]cn1)NC(=O)[C@@H](NC(=O)[C@H](CCC(=O)O)NC(=O)CC(C)C)[C@@H](C)O)C(c1ccccc1)c1ccccc1)[C@@H](C)CC)C(N)=O
B13: Isovaleric Acid-E-A-H-[Dpa]-P-A-I-[(D)Lys]-[bhPhe]-[Lys(Ahx_Palm)]-[(D)Lys]-A-NH2 (peptide)
peptide: Isovaleryl-EAH[Dip]PAI[dK][β3hF]K([Ahx-Palmitoyl])[dK]A-NH2
SMILES: CCCCCCCCCCCCCCCC(=O)NCCCCCC(=O)NCCCC[C@H](NC(=O)C[C@H](Cc1ccccc1)NC(=O)[C@@H](CCCCN)NC(=O)[C@@H](NC(=O)[C@H](C)NC(=O)[C@@H]1CCCN1C(=O)[C@@H](NC(=O)[C@H](Cc1c[nH]cn1)NC(=O)[C@H](C)NC(=O)[C@H](CCC(=O)O)NC(=O)CC(C)C)C(c1ccccc1)c1ccccc1)[C@@H](C)CC)C(=O)N[C@H](CCCCN)C(=O)N[C@@H](C)C(N)=O
B14: Isovaleric Acid-E-T-A-[Dpa]-P-A-I-[(D)Lys]-[bhPhe]-[Lys(Ahx_Palm)]-[(D)Lys]-A-NH2 (peptide)
peptide: Isovaleryl-ETA[Dip]PAI[dK][β3hF]K([Ahx-Palmitoyl])[dK]A-NH2
SMILES: CCCCCCCCCCCCCCCC(=O)NCCCCCC(=O)NCCCC[C@H](NC(=O)C[C@H](Cc1ccccc1)NC(=O)[C@@H](CCCCN)NC(=O)[C@@H](NC(=O)[C@H](C)NC(=O)[C@@H]1CCCN1C(=O)[C@@H](NC(=O)[C@H](C)NC(=O)[C@@H](NC(=O)[C@H](CCC(=O)O)NC(=O)CC(C)C)[C@@H](C)O)C(c1ccccc1)c1ccccc1)[C@@H](C)CC)C(=O)N[C@H](CCCCN)C(=O)N[C@@H](C)C(N)=O
B15: Isovaleric Acid-E-T-H-[Dpa]-P-[(D)Lys]-I-[(D)Lys]-[bhPhe]-[Lys(Ahx_Palm)]-NH2 (peptide)
peptide: Isovaleryl-ETH[Dip]P[dK]I[dK][β3hF]K([Ahx-Palmitoyl])-NH2
SMILES: CCCCCCCCCCCCCCCC(=O)NCCCCCC(=O)NCCCC[C@H](NC(=O)C[C@H](Cc1ccccc1)NC(=O)[C@@H](CCCCN)NC(=O)[C@@H](NC(=O)[C@@H](CCCCN)NC(=O)[C@@H]1CCCN1C(=O)[C@@H](NC(=O)[C@H](Cc1c[nH]cn1)NC(=O)[C@@H](NC(=O)[C@H](CCC(=O)O)NC(=O)CC(C)C)[C@@H](C)O)C(c1ccccc1)c1ccccc1)[C@@H](C)CC)C(N)=O
B16: Isovaleric Acid-A-T-H-[Dpa]-P-A-I-[(D)Lys]-[bhPhe]-[Lys(Ahx_Palm)]-NH2 (peptide)
peptide: Isovaleryl-ATH[Dip]PAI[dK][β3hF]K([Ahx-Palmitoyl])-NH2
B17: Isovaleric Acid-E-T-H-[Dpa]-P-A-I-[(D)Lys]-A-[Lys(Ahx_Palm)]-[(D)Lys]-A-NH2 (peptide)
peptide: Isovaleryl-ETH[Dip]PAI[dK]AK([Ahx-Palmitoyl])[dK]A-NH2
SMILES: CCCCCCCCCCCCCCCC(=O)NCCCCCC(=O)NCCCC[C@H](NC(=O)[C@H](C)NC(=O)[C@@H](CCCCN)NC(=O)[C@@H](NC(=O)[C@H](C)NC(=O)[C@@H]1CCCN1C(=O)[C@@H](NC(=O)[C@H](Cc1c[nH]cn1)NC(=O)[C@@H](NC(=O)[C@H](CCC(=O)O)NC(=O)CC(C)C)[C@@H](C)O)C(c1ccccc1)c1ccccc1)[C@@H](C)CC)C(=O)N[C@H](CCCCN)C(=O)N[C@@H](C)C(N)=O

Each binder was assayed against T1, human ferroportin (SLC40A1) fused in … (assay: cell-based or functional assay).

Row | Binder | FPN EC50 [nM]
1 | B1 | 915
2 | B2 | > 3000
3 | B3 | > 3000
4 | B4 | 325
5 | B5 | > 3000
6 | B6 | 24.1
7 | B7 | > 3000
8 | B8 | 241
9 | B9 | 117
10 | B10 | 18.9
11 | B11 | 91.9
12 | B12 | 682
13 | B13 | 492
14 | B14 | 356
15 | B15 | 532
16 | B16 | 40.6
17 | B17 | 50.6
